Article PMC9055814

B1: SlGA3ox2 probe P1 (dsDNA)
DNA 1: GCACTTAAGATCATAATTAATGATTTCAGTTACCGCAATAAAATG
DNA 2: CATTTTATTGCGGTAACTGAAATCATTAATTATGATCTTAAGTGC
B2: SlGA3ox2 probe P3 (dsDNA)
DNA 1: CCCATACAACTTTGCGATGTTAATGGTTATAACTATAAAGGGAGA
DNA 2: TCTCCCTTTATAGTTATAACCATTAACATCGCAAAGTTGTATGGG
B3: SlGA3ox1 probe P5 (dsDNA)
DNA 1: TTAACAAAGACAAATTAGTTGATTGGTTAAAGACAATCAATATGT
DNA 2: ACATATTGATTGTCTTTAACCAATCAACTAATTTGTCTTTGTTAA
B4: SlGA3ox2 probe P2 (dsDNA)
DNA 1: CAATTATTTGTCAATATTTGGTTAAATACTTGTTTAATAGTATAC
DNA 2: GTATACTATTAAACAAGTATTTAACCAAATATTGACAAATAATTG
B5: SlGA3ox2 probe P4 (dsDNA)
DNA 1: CTATAATTGAATTGAATTCAGTTAACTGTCGAAATTGGAATGGTA
DNA 2: TACCATTCCAATTTCGACAGTTAACTGAATTCAATTCAATTATAG

The binders below were run against SlGAMYB2-GST (Solanum lycopersicum, UniProt A0A3Q7H2U6 1-504) (assay: EMSA).
B1: no binding. B2: binds. B3: no binding. B4: binds. B5: no binding.
